Data as given in US9580464B2, “Anti-inflammatory proteins and peptides and methods of preparation and use thereof” (ManukaMed Limited, priority 2012, dated 2017).

Target: Cathepsin B from bovine spleen (Bos taurus, UniProt P07688)
Test: Assay for Cathepsin B activity / inhibition (Z-Lys-pNP substrate, absorbance 330 nm)
Type: biochemical
[1] = Table 8, MRJP5 derived synthetic peptides, MGO-modified
[2] = Table 8, MRJP5 derived synthetic peptides, unmodified
[3] = Table 6, MRJP1 derived synthetic peptides, MGO-modified
[4] = Table 6, MRJP1 derived synthetic peptides, unmodified
[5] = Table 9, additional synthetic peptides, MGO-modified
[6] = Table 9, additional synthetic peptides, unmodified
[7] = Table 1, peptides from C-terminus of MRJP1, 2 mM MGO-modified peptide
[8] = Table 1, peptides from C-terminus of MRJP1, 2 mM unmodified peptide

Cathepsin B remaining activity (% of control) [1] | Cathepsin B remaining activity (% of control) [2] | Cathepsin B remaining activity (% of control) [3] | Cathepsin B remaining activity (% of control) [4] | Substance | further results
92.75 ± 2.41 | 100.51 ± 10.69 |  |  | Ac-TDK-OH (Ac-Thr-Asp-Lys-OH) [MRJP5 derived synthetic peptide] | 
 |  | 118.90 ± 5.62 | 126.30 ± 8.12 | Ac-MTR-OH (Ac-Met-Thr-Arg-OH) [MRJP1 derived synthetic peptide] | 
87.53 ± 3.26 | 103.18 ± 4.50 |  |  | H-TDK-OH (H-Thr-Asp-Lys-OH) [MRJP5 derived synthetic peptide] | 
 |  | 71.18 ± 2.22 | 174.56 ± 11.96 | H-FDR-OH (H-Phe-Asp-Arg-OH) [MRJP1 derived synthetic peptide] | 
74.46 ± 0.97 | 101.73 ± 2.37 |  |  | H-MDR-OH (H-Met-Asp-Arg-OH) [MRJP5 derived synthetic peptide] | 
 |  | 99.05 ± 7.78 | 93.14 ± 2.42 | Ac-YINR-OH [MRJP1 derived synthetic peptide] | 
 |  | 69.15 ± 4.87 | 121.24 ± 3.57 | Ac-MQK-OH (Ac-Met-Gln-Lys-OH) [MRJP1 derived synthetic peptide] | 
88.56 ± 2.14 | 107.34 ± 1.46 |  |  | Ac-MDR-OH (Ac-Met-Asp-Arg-OH) [MRJP5 derived synthetic peptide] | 
 |  | 106.82 ± 3.02 | 171.58 ± 11.29 | Ac-HNIR-OH [MRJP1 derived synthetic peptide] | 
 |  | 99.48 ± 2.95 | 127.00 ± 0.93 | H-MQK-OH (H-Met-Gln-Lys-OH) [MRJP1 derived synthetic peptide] | 
91.72 ± 0.84 | 96.48 ± 2.03 |  |  | Ac-TNR-OH (Ac-Thr-Asn-Arg-OH) [MRJP5 derived synthetic peptide] | 
90.15 ± 1.52 | 102.05 ± 10.32 |  |  | Ac-LQK-OH (Ac-Leu-Gln-Lys-OH) [MRJP5 derived synthetic peptide] | 
90.13 ± 17.28 | 101.26 ± 4.59 |  |  | Ac-MHR-OH (Ac-Met-His-Arg-OH) [MRJP5 derived synthetic peptide] | 

More lines, now with the values behind:

Substance | Cathepsin B remaining activity (% of control) [1] | Cathepsin B remaining activity (% of control) [2] | Cathepsin B remaining activity (% of control) [3] | Cathepsin B remaining activity (% of control) [4] | further results
H-TNR-OH (H-Thr-Asn-Arg-OH) [MRJP5 derived synthetic peptide] | 91.86 ± 3.50 | 102.61 ± 5.34 |  |  | 
H-MHR-OH (H-Met-His-Arg-OH) [MRJP5 derived synthetic peptide] | 80.66 ± 6.19 | 96.77 ± 9.26 |  |  | 
H-HNIR-OH [MRJP1 derived synthetic peptide] |  |  | 103.38 ± 3.65 | 151.51 ± 0.62 | 
Ac-LLK-OH (Ac-Leu-Leu-Lys-OH) [synthetic peptide derived from MRJP1, 2, 4] |  |  |  |  | Cathepsin B remaining activity (% of control) [5]: 147.60; Cathepsin B remaining activity (% of control) [6]: 141.56 ± 13.90
Ac-MDK-OH (Ac-Met-Asp-Lys-OH) [MRJP5 derived synthetic peptide] | 99.38 ± 1.63 | 109.67 ± 3.13 |  |  | 
Ac-FTK-OH (Ac-Phe-Thr-Lys-OH) [MRJP1 derived synthetic peptide] |  |  | 105.35 ± 5.73 | 148.84 ± 16.13 | 
Ac-LIR-OH (Ac-Leu-Ile-Arg-OH) [synthetic peptide derived from MRJP2, 4 (see Leu408)] |  |  |  |  | Cathepsin B inhibition after MGO modification (MGO-modified synthetic peptides): particularly potent activity; Cathepsin B remaining activity (% of control) [5]: 0.07; Cathepsin B remaining activity (% of control) [6]: 128.28 ± 2.50
H-IDR-OH (H-Ile-Asp-Arg-OH) [MRJP5 derived synthetic peptide] | 85.60 ± 5.32 | 98.02 ± 2.54 |  |  | 
H-FTK-OH (H-Phe-Thr-Lys-OH) [MRJP1 derived synthetic peptide] |  |  | 76.59 ± 2.24 | 147.63 ± 0.70 | 
Ac-NQKN-OH [synthetic peptide derived from the C-terminus of MRJP2] |  |  |  |  | Cathepsin B remaining activity (% of control) (Table 2, peptides from C-terminus of MRJP2, 2 mM MGO-modified peptide): 102.36 ± 6.36; Cathepsin B remaining activity (% of control) (Table 2, peptides from C-terminus of MRJP2, 2 mM unmodified peptide): 282.39 ± 19.66
Ac-SSKS-OH |  |  |  |  | Cathepsin B remaining activity (% of control) (Table 3, peptides from C-terminus of MRJP3, 2 mM MGO-modified peptide): 107.49 ± 4.29; Cathepsin B remaining activity (% of control) (Table 3, peptides from C-terminus of MRJP3, 2 mM unmodified peptide): 118.71 ± 9.09
H-CDR-OH (H-Cys-Asp-Arg-OH) [MRJP1 derived synthetic peptide] |  |  | 96.01 ± 6.45 | 165.10 ± 0.38 | 
Ac-LIR-NH2 (Ac-Leu-Ile-Arg-NH2) [synthetic peptide derived from MRJP2, 4 (see Leu408), amidated C-terminus] |  |  |  |  | Cathepsin B remaining activity (% of control) [5]: 72.56; Cathepsin B remaining activity (% of control) [6]: 65.39 ± 2.75
H-MTR-OH (H-Met-Thr-Arg-OH) [MRJP1 derived synthetic peptide] |  |  | 104.39 ± 2.68 | 143.48 ± 2.33 | 
Ac-PFKI-OH [synthetic peptide derived from the C-terminus of MRJP1] |  |  |  |  | Cathepsin B remaining activity (% of control) [7]: 91.45 ± 0.11; Cathepsin B remaining activity (% of control) [8]: 152.05 ± 13.20
Ac-KISI-OH [synthetic peptide derived from the C-terminus of MRJP1] |  |  |  |  | Cathepsin B remaining activity (% of control) [7]: 92.82 ± 5.44; Cathepsin B remaining activity (% of control) [8]: 133.11 ± 4.29
Ac-LVK-OH (Ac-Leu-Val-Lys-OH) [synthetic peptide derived from MRJP3 (see Leu170)] |  |  |  |  | Cathepsin B remaining activity (% of control) [5]: 80.84; Cathepsin B remaining activity (% of control) [6]: 143.92 ± 3.15
Ac-VNR-OH (Ac-Val-Asn-Arg-OH) [MRJP5 derived synthetic peptide] | 68.49 ± 8.73 | 99.83 ± 3.40 |  |  | 
H-MDK-OH (H-Met-Asp-Lys-OH) [MRJP5 derived synthetic peptide] | 70.62 ± 12.34 | 104.25 ± 2.73 |  |  | 
